According to PMC8928829 (mAbs, 2022):

How the values were obtained:
Assay in all cases: BLI
Settings in all cases: both partners purified
[1] = biological target: T1, recombinant SARS-CoV-2 RBD, Alpha (B.1.1.7), N501Y (SARS-CoV-2, Alpha (B.1.1.7) RBD N501Y, N501Y)
T1 construct: also called RBD_(N501Y); source: bought: ACRO Biosystems

[2] = biological target: T2, recombinant SARS-CoV-2 RBD, Beta (B.1.351), K417N, E484K, N501Y (SARS-CoV-2, Beta (B.1.351), K417N | E484K | N501Y)
T2 construct: source: bought: ACRO Biosystems

[3] = biological target: T3, recombinant SARS-CoV-2 RBD, Gamma (P.1), K417T, E484K, N501Y (SARS-CoV-2, Gamma (P.1), K417T | E484K | N501Y)
T3 construct: source: bought: ACRO Biosystems

[4] = biological target: T4, recombinant SARS-CoV-2 RBD, Delta (B.1.617.2), L452R, T478K (SARS-CoV-2, Delta (B.1.617.2), L452R | T478K)
T4 construct: also called Delta variant RBD; source: bought: ACRO Biosystems

[5] = biological target: T5, SARS-CoV-2 RBD Gamma (P.1) (SARS-CoV-2, Gamma (P.1), K417T | E484K | N501Y)
T5 construct: also called P.1/K417T, E484K, N501Y; source: bought: ACRO Biosystems

[6] = biological target: T6, SARS-CoV-2 RBD Beta (B.1.351) (SARS-CoV-2, Beta (B.1.351), K417N | E484K | N501Y)
T6 construct: also called B.1.351/K417N, E484K, N501Y; source: bought: ACRO Biosystems

[7] = biological target: T7, SARS-CoV-2 RBD Delta (B.1.617.2) (SARS-CoV-2, Delta (B.1.617.2), L452R | T478K)
T7 construct: also called B.1.617.2/L452R, T478K; source: bought: ACRO Biosystems

[8] = biological target: T8, SARS-CoV-2 RBD Alpha (B.1.1.7) N501Y (SARS-CoV-2, Alpha (B.1.1.7) RBD N501Y, N501Y)
T8 construct: also called RBD N501Y; source: bought: ACRO Biosystems

B1: NIH-CoVnb-112 (VHH)
VHH: DVQLQESGGGLVQPGGSLRLSCAASGLTLDYYAIGWFRQAPGKEREGVSCISSSDGSTYYADSVKGRFTTSRDNAKNTVYLQMNSLKPEDTAVYYCAAVPSTYYSGTYYYTCHPGGMDYWGKGTQVTVSS
Kd [1]: 3 nM | Kd [2]: 4.28 nM | Kd [3]: 4.16 nM | Kd [4]: 1.66 nM | kon [4]: 461000 M⁻¹ s⁻¹

B2: NIH-CoVnb-112 (VHH)
VHH: DVQLQESGGGLVQPGGSLRLSCAASGLTLDYYAIGWFRQAPGKEREGVSCISSSDGSTYYADSVKGRFTTSRDNAKNTVYLQMNSLKPEDTAVYYCAAVPSTYYSGTYYYTCHPGGMDYWGKGTQVTVSS
koff [5]: 0.000822 s⁻¹ | kon [5]: 214000 M⁻¹ s⁻¹ | koff [6]: 0.000705 s⁻¹ | kon [6]: 201000 M⁻¹ s⁻¹ | koff [7]: 0.000609 s⁻¹ | koff [8]: 0.000428 s⁻¹ | kon [8]: 153000 M⁻¹ s⁻¹
